Experiment [1] has as its target DnaK, wild type, with a C-terminal hexahistidine tag (E. coli, UniProt P0A6Y8 1-638). Nature of the experiment: SPR. On the technique in general: Surface plasmon resonance follows binding to a sensor surface in real time, without labels.
Experiment [2] concerns the target DnaK V389A (E. coli, UniProt P0A6Y8 1-638, V389A). Nature of the experiment: SPR.

B1: DnaJ with the biotin carboxyl carrier protein (BCCP) fused at the C-terminus (natural protein, E. coli, UniProt P08622 1-376, looked up)
chain: MAKQDYYEILGVSKTAEEREIRKAYKRLAMKYHPDRNQGDKEAEAKFKEIKEAYEVLTDSQKRAAYDQYGHAAFEQGGMGGGGFGGGADFSDIFGDVFGDIFGGGRGRQRAARGADLRYNMELTLEEAVRGVTKEIRIPTLEECDVCHGSGAKPGTQPQTCPTCHGSGQVQMRQGFFAVQQTCPHCQGRGTLIKDPCNKCHGHGRVERSKTLSVKIPAGVDTGDRIRLAGEGEAGEHGAPAGDLYVQVQVKQHPIFEREGNNLYCEVPINFAMAALGGEIEVPTLDGRVKLKVPGETQTGKLFRMRGKGVKSVRGGAQGDLLCRVVVETPVGLNERQKQLLQELQESFGGPTGEHNSPRSKSFFDGVKKFFDDLTR
Turning to B1, the binding result in experiment [1] and in experiment [2] was “binds” in each case.
